The values below come from patent publication US20220306734A1 (H LUNDBECK A S, published 2022).

Test [1] has as its target human mGluR5 extracellular domain (human-mGluR5-ECD) (human) (UniProt P41594). Kind of test: HTRF, soluble ECD.
Test [2] has as its target full-length (FL) human mGluR5 on BA/F3-mGluR5 clone 10C9 cells (human) (UniProt P41594). Kind of test: cell-based or functional assay.
The target is the same in test [3]. As to the kind of experiment: flow cytometry, BA/F3-mGluR5 10C9 cells; low end tied to Ab22 by Table 2.
For test [4], the target named is human mGluR5 extracellular domain (human-mGluR5-ECD) (human) (UniProt P41594). Kind of test: HTRF, soluble ECD. The source holds these as a separate data set. Background: TR-FRET usually uses a lanthanide donor and a delayed reading to cut background.
The target in test [5] is full-length (FL) human mGluR5 on BA/F3-mGluR5 clone 10C9 cells (human) (UniProt P41594). Kind of test: flow cytometry, BA/F3-mGluR5 10C9 cells, 10 ug/ml antibody. For orientation: Flow cytometry measures light scatter and fluorescence of single cells or particles in a stream.
Test [6] addresses T1, human mGluR1 extracellular domain (human-mGluR1-ECD) (human, UniProt Q13255 19-592, limits assumed).
T1 construct: ECD construct made 'in a similar fashion' to the human mGluR5 one; also called hu-mGluR1
As to the kind of experiment: HTRF, soluble ECD. On the procedure: (§1) Binding of antibodies to mGluR5/mGluRJ measured via Homogeneous Time-Resolved Fluorescence (HTRF). Binding assays were performed using HTRF reagents from CisBio. Ten microliters of an antibody dilution series (highest final concentration of 30 nM) was incubated with 10 μl of mGluR-ECD (10 nM final concentration) in HTRF buffer (50 mM Phosphate buffer pH7, 0.8M KF (potassium fluoride), 0.2% BSA). Twenty microliters of Europium-labeled anti-hu-Fc donor (2 nM final concentration, CisBio Catalog No. 61HFCKLB) and 20 μl of XL665-labeled anti-Flag acceptor (60 nM final concentration, CisBio Catalog No. 61FG2XLB) were added to each well and incubated for 1 hour at room temperature. Alternatively, the antibody dilution series was incubated with 10 μl of biotinylated mGluR-ECD (10 nM final concentration), and 20 μl of Europium-labeled anti-hu-Fc donor (2 nM final concentration) and 20 μl of d2-labeled streptavidin acceptor (60 nM final concentration, CisBio Catalog No. 610SADLB) were added to each well. Fluorescence was measured at 620 and 665 nm with a delay of 300 μsec. Results were expressed as the ratio of signal at 665 nm over 620 nm. EC₅₀ values were calculated for binding of Ab1-Ab23 to human-mGluR5-ECD, of Ab1-Ab21 to rat-mGluR5-ECD, and of Ab1, Ab2 and Ab4-Ab12 to monkey-mGluR5-ECD and to human-mGluR1-ECD (TABLE 1).

The target of test [7] is T2, rat mGluR5 extracellular domain (rat-mGluR5-ECD) (rat, UniProt P31424 21-504).
T2 construct: ECD construct made 'in a similar fashion' to the human one
As to the kind of experiment: HTRF, soluble ECD. On the procedure:
as §1

Test [8] addresses T3, cynomolgus monkey mGluR5 extracellular domain (monkey-mGluR5-ECD) (cynomolgus monkey, UniProt P41594 21-580 (human entry), limits assumed).
T3 construct: ECD construct made 'in a similar fashion' to the human one; also called cyno-mGluR5
As to the kind of experiment: HTRF, soluble ECD. The method, then: as §1

Test [9] addresses full-length (FL) human mGluR5 on BA/F3-mGluR5 clone 10C9 cells (human) (UniProt P41594). As to the kind of experiment: flow cytometry, BA/F3-mGluR5 10C9 cells; high end tied to Ab4 by Table 2.
Test [10] has as its target human mGluR5 extracellular domain (human-mGluR5-ECD) (human) (UniProt P41594). Kind of test: AlphaLISA, biotinylated ECD. On the technique in general: Alpha assays give light when donor and acceptor beads are brought close together.
For test [11] the target is unchanged. Kind of test: AlphaLISA, biotinylated ECD. The source holds these as a separate data set.

Sequence of human mGluR5 extracellular domain (human-mGluR5-ECD) (human) (P41594 other isoform, or with tags, fused parts or gaps): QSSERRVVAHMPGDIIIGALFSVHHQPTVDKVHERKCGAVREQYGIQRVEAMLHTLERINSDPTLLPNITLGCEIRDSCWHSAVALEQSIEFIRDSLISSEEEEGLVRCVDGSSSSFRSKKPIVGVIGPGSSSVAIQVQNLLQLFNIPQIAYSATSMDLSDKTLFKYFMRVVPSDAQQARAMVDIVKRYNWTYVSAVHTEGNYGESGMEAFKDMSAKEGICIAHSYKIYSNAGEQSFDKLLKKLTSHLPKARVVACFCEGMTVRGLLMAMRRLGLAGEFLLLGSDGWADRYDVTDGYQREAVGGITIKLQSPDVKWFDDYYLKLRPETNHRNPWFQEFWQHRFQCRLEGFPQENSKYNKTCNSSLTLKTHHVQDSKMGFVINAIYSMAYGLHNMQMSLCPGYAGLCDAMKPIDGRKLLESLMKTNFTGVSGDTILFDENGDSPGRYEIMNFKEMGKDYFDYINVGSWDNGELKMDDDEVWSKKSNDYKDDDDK
T1 sequence (Q13255 other isoform, or with tags, fused parts or gaps limits assumed): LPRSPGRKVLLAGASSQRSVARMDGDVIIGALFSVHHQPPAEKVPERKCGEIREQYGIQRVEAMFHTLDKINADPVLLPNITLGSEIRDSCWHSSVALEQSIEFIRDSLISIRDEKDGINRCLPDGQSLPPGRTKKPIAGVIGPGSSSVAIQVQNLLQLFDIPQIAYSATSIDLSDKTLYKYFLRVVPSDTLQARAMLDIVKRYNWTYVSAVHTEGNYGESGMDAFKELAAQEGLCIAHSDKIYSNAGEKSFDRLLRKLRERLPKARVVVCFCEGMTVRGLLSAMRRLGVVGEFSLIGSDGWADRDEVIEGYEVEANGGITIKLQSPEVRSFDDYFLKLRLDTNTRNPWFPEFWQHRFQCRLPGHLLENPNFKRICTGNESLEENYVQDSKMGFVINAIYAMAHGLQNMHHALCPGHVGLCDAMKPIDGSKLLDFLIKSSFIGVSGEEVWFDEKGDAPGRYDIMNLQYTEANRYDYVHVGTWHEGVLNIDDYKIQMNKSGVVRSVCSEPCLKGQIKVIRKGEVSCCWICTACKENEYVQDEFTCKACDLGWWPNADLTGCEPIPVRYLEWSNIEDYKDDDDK
T3 sequence (P41594 other isoform, or with tags, fused parts or gaps limits assumed): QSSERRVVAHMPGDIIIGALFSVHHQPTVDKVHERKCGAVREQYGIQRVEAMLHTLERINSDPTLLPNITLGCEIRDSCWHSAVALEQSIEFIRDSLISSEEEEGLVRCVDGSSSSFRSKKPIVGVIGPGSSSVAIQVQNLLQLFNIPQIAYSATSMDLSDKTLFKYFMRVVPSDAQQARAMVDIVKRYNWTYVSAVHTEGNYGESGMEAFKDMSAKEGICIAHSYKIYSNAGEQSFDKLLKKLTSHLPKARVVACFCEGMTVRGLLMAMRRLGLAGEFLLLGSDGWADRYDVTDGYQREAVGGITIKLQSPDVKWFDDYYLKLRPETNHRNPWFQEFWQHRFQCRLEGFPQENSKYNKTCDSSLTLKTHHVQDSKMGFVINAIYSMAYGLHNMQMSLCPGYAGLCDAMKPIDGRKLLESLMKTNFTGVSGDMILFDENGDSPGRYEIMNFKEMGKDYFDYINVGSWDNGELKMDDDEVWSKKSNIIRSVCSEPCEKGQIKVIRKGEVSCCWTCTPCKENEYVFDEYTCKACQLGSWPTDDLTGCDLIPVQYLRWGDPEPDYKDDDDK
T2 sequence (P31424 other isoform, or with tags, fused parts or gaps limits assumed, form in doubt): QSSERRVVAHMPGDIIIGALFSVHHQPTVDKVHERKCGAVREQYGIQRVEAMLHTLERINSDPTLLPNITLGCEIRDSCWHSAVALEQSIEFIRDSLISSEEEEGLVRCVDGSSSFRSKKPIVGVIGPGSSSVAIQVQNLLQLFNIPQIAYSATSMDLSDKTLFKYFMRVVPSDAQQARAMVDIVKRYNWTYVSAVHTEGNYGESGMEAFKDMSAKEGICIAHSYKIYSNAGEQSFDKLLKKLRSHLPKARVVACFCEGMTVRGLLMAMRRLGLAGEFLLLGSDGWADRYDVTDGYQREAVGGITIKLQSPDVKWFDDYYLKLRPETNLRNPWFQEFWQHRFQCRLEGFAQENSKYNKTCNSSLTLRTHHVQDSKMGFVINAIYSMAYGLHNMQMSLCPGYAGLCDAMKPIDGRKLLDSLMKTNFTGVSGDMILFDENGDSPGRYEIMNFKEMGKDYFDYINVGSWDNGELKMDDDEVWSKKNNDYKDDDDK

B1: mGluR5 Ab22 (antibody, V domains shown)
VH: QSLEESGGDLVKPGASLTLTCTASGFSFSTSYYMCWVRQAPGKGLEWIGCIHTSTFSTWYASWAKGRFTISKTSSTTVTLQMTSLTAADTATYFCARRDAYNYAGYAYNLWGQGTLVTVSS
VL: DVVMTQTPASVSAAVGGTVTINCQASEDIYSNLAWYQQKPGQPPKLLIYGASTLASGVPSRFKGSGSGTEFTLTISDLECADAATYYCQCTFGCFSGSSNNIFGGGTEVVVKR
B1: the figures for the EC50 in test [1] and in test [4] were 0.439 nM and < 2 nM, respectively. In addition, the pERK Assay Inhibition IC50-nM in test [2] stood at 8.33 nM. Further, the fold signal over background in [3] is 10 to 42 fold. Also, in test [5], the mGluR5 (FL) cell binding-fold over background amounted to 10.9 fold.

B2: mGluR5 Ab4 (antibody, V domains shown)
VH: QQQLEESGGGLVKPGGTLTLTCKGSGIDFNDYQYMCWVRQAPGKGLEWIACIYNGDGETYYAHWAKGRFTISKTSSTTVTLQMTSLTAADTATYFCARGSGVGSYGYNFWGPGTLVTVSS
VL: DIVMTQTPASVEAAVGGTVTIKCQASESIYSNLAWYQQKAGQPPKLLIYRASNLASGVPSRFKGSGSGTEFTLTISDLECADAATYYCQGYYASTVTNGFGGGTEVVVKR
notes: Rabbit variable regions on human heavy and light chain constant regions (chimeric)
Regarding B2, the EC50 (commonly the concentration giving half of the maximal effect) is 0.293 nM in test [1], 0.332 nM in [7], 0.286 nM in test [8] and < 2 nM in test [4]. In test [2], this molecule showed a pERK Assay Inhibition IC50-nM of 0.34 nM. For the same molecule, the binding result in [6] was “no binding”. Besides, in test [9], the fold signal over background was 10 to 42 fold. Besides, the mGluR5 (FL) cell binding-fold over background in [5] is 41.8 fold.

B3: mGluR5 Ab29 (antibody, V domains shown)
VH: QQQLEESGGGLVKPGGTLTLTCKASGIDFSSYHYMCWVRQAPGKGLEWIACIYNGDGDTYYASWAKGRFTISKTSSTTVTLQMTSLTAADTATYFCARGSGVGSYGYNLWGPGTLVTVSS
VL: DIVMTQTPASVEAAVGGTVTIKCQASENIYSNLAWYQQKPGQPPKLLIYRASNLESGVPSRFKGSGSGTEFTLTISDLECDDAATYYCQGYYPSAVTNAFGGGTEVVVKR
On to B3, for which the concentration giving a half-maximal response (EC50) in test [10] was < 2 nM; in test [11] it was 0.0891 nM. In test [2], the pERK Assay Inhibition IC50-nM worked out at 0.09 nM. Moreover, the mGluR5 (FL) cell binding-fold over background in [5] was determined as 39.6 fold.

B4: mGluR5 Ab27 (antibody, V domains shown)
VH: QSVEESGGGLVKPGGTLTLTCKASGIDFSSYHYMCWVRQAPGKGLEWIACIYNGDGDTYYASWAKGRFTISKTSSTTVTLQMTSLTAADTATYFCARGSGVGSYGYNLWGPGTLVTVSS
VL: DIVMTQTPASVEAAVGGTVTIKCQASESIYSNLAWYQQKPGQPPKLLIYRASNLESGVPSRFKGSGSGTEFTLTISDLECADAATYYCQGYYASTTTNAFGGGTEVVVKR
Regarding B4, the results for the EC50 in [10] and in test [11] were < 2 nM and 0.0772 nM, respectively. In test [2], this molecule came in with a pERK Assay Inhibition IC50-nM of 0.06 nM. Further, in test [5], the mGluR5 (FL) cell binding-fold over background was found to be 37.8 fold.

B5: mGluR5 Ab28 (antibody, V domains shown)
VH: QQQLEESGGGLVKPGGTLTLTCKGSGIDFNDYYYMCWVRQAPGKGLEWIACIYNGDGETYYANWAKGRFTISKTSSTTVTLQMTSLTAADTATYFCARGSGVGSYGYNFWGPGTLVTVSS
VL: DIVMTQTPASVEAAVGGTVTIKCQASESIYSNLAWYQQKPGQPPKLLIYRASNLASGVPSRFKGSGSGTEFTLTISDLECADAATYYCQGYYASTVTNAFGGGTEVVVKR
On to B5, for which the concentration for a half-maximal effect (EC50) was < 2 nM in test [10] and 0.0918 nM in test [11]. The molecule also yielded a pERK Assay Inhibition IC50-nM in [2] of 0.11 nM. This molecule also came in with a mGluR5 (FL) cell binding-fold over background in test [5] of 38.9 fold.
